{"source": "the RNAGym collection of RNA variant scans (doi:10.7554/elife.80360)", "parents": {"B1": {"name": "HDV Ribozyme (parent)", "chain": "GGCCGGCAUGGUCCCAGCCUCCUCGCUGGCGCCGGCUGGGCAACAUUCCGAGGGGACCGUCCCCUCGGUAAUGGCGAAUGGGACCCA"}}, "data": [{"variants_of": "B1", "assay": "self-cleavage, relative activity (ratio to wild type); higher = more cleavage; co-transcriptional", "values": [{"variant": "GGCCGGCAUGGUCCCAGCCUCCUCGCUGGCGCCGGCUGGGCAACAUUCCGAGGGAACCGUCCCCUCGGAAAUGGCGAAUGGGACCCA", "note": "[G55A U69A]", "self-cleavage": 0.857}, {"variant": "GGCCGGCAUGGUCCCAGCCUCCUCGCUGGCGACGGCUGGGCAACAUUCCGAGGGGACCGACCCCUCGGUAAUGGCGAAUGGGACCCA", "note": "[C32A U60A]", "self-cleavage": 0.252}, {"variant": "GGCCGGCAUGGUCCCAGCCUCCUCGCUGGCGCUGGCUGGGCAACAUUCCGAGGUGACCGUCCCCUCGGUAAUGGCGAAUGGGACCCA", "note": "[C33U G54U]", "self-cleavage": 0.901}, {"variant": "GGCCGGCAUGGUCCCAGCCUCCUCGCUGGCGCCGGCUAGGCAACAUUCCGGGGGGACCGUCCCCUCGGUAAUGGCGAAUGGGACCCA", "note": "[G38A A51G]", "self-cleavage": 0.141}, {"variant": "GGCCGGCAUGGUCCCAGCCUCCUCGCUAGCGCCGGCUGGGCAACAUUCCGAGGGGACCGUCCCCUCGGUAAUGCCGAAUGGGACCCA", "note": "[G28A G74C]", "self-cleavage": 0.0845}, {"variant": "GGCCGGCAUGGUCCCAGCCUCCUCGCUGGCGCCGGAUGGGCAACAUUCCGAGGGGACCGUCCCCUCGAUAAUGGCGAAUGGGACCCA", "note": "[C36A G68A]", "self-cleavage": 0.293}, {"variant": "GGCCGGCAUGGUCCCAGCCUCCUCGCUGGCGCCGGCUGGGCAACAUUGCGAGGGGACCGUCCCCUCGCUAAUGGCGAAUGGGACCCA", "note": "[C48G G68C]", "self-cleavage": 1.14}, {"variant": "GGCCGGCAUGAUCCCAGCCUCUUCGCUGGCGCCGGCUGGGCAACAUUCCGAGGGGACCGUCCCCUCGGUAAUGGCGAAUGGGACCCA", "note": "[G11A C22U]", "self-cleavage": 0.041}, {"variant": "GACCGGCAUGGUCCCAGCCUCCUCGCUGGCCCCGGCUGGGCAACAUUCCGAGGGGACCGUCCCCUCGGUAAUGGCGAAUGGGACCCA", "note": "[G2A G31C]", "self-cleavage": 0.0354}, {"variant": "GGCCGGCAUGCUCCCAGCCUCCUCGCUGGCGCCGGCUGGGCAACAUUCCGAGGGAACCGUCCCCUCGGUAAUGGCGAAUGGGACCCA", "note": "[G11C G55A]", "self-cleavage": 0.407}, {"variant": "GGCCCGCAUGGUCCCAGCCUCCUCGCUGGCGCAGGCUGGGCAACAUUCCGAGGGGACCGUCCCCUCGGUAAUGGCGAAUGGGACCCA", "note": "[G5C C33A]", "self-cleavage": 0.26}, {"variant": "GGCCGGCAUGGUCCCAGCCUGCUCGCUGGCGCCGGCUGGGCAACAUUCCGAGGGGACCGUCCCCUCGGUCAUGGCGAAUGGGACCCA", "note": "[C21G A70C]", "self-cleavage": 0.225}, {"variant": "GGACGGCAUGGUCCCAGCCUCCUCGCUGGCGCCGGCUGGGCAACAUUCCGAUGGGACCGUCCCCUCGGUAAUGGCGAAUGGGACCCA", "note": "[C3A G52U]", "self-cleavage": 0.404}, {"variant": "GGCCGGCAUGGUCCCAGCCUCCUCGCUGGCGCCGGCUCGGCAACAUACCGAGGGGACCGUCCCCUCGGUAAUGGCGAAUGGGACCCA", "note": "[G38C U47A]", "self-cleavage": 0.249}, {"variant": "GGCCGGCAUGGUCCCAGCCUCCUCGCUGGCGCCGGCUGGGCAACAUUCCAAGGGGACCGUCCCCUCGGUAAAGGCGAAUGGGACCCA", "note": "[G50A U72A]", "self-cleavage": 0.677}, {"variant": "GGACGGCAUGGUCCCAGCCUCCUCGCUGGCGCCGGCUGGGCAACAUUCCGAGGGGACCCUCCCCUCGGUAAUGGCGAAUGGGACCCA", "note": "[C3A G59C]", "self-cleavage": 0.668}, {"variant": "GGCCGGCAUGGUCCCAGCCUCCUCGCUGGCGCCGGCUAGGCAACAUUCCGAGGGGACCGUCCGCUCGGUAAUGGCGAAUGGGACCCA", "note": "[G38A C63G]", "self-cleavage": 0.0811}, {"variant": "CGCCGGCAUGGUCCCAGCCUCCUCGCUGGCGCCGCCUGGGCAACAUUCCGAGGGGACCGUCCCCUCGGUAAUGGCGAAUGGGACCCA", "note": "[G1C G35C]", "self-cleavage": 0}, {"variant": "GGCCGGCAUGGUCCCAGCCUCCUCGCUGGCGCCGGCUGGGCAACAUUCCGAGGGGAGCGUCCCCUCGGUAAUUGCGAAUGGGACCCA", "note": "[C57G G73U]", "self-cleavage": 0.464}, {"variant": "GGCCGGCAUGGUCCCAGCCUCCUCGCUGGCGCCGGCUGGGCAACAUUCCGAGGGGACCGUCCCCUCAGUAAUGCCGAAUGGGACCCA", "note": "[G67A G74C]", "self-cleavage": 0.132}, {"variant": "GGCCGGAAUGGUCCCAGCCUCCUCCCUGGCGCCGGCUGGGCAACAUUCCGAGGGGACCGUCCCCUCGGUAAUGGCGAAUGGGACCCA", "note": "[C7A G25C]", "self-cleavage": 0}, {"variant": "GGCCGGCAUGGUCCCAGCCUCCUCGCUGGCGCCGGCAGGGCAACAUUCCGAGGGGACCGUCCCCUUGGUAAUGGCGAAUGGGACCCA", "note": "[U37A C66U]", "self-cleavage": 0.314}, {"variant": "GGCCGGCAUGGUCCCAGCCUCCUCGCUGGCGCCGGGUGGGCAACAUUCCGAGGGGACCGUCCCCUCGGUAAUGGCGAAUGGGACUCA", "note": "[C36G C85U]", "self-cleavage": 0.151}, {"variant": "GGCCGGCAUGGUCCCACCCUCCUCGCUGGCGCCGGCUGGGCAACAUUCCGAGGGGACCGUCCCCUCGGUAAUGGCGGAUGGGACCCA", "note": "[G17C A77G]", "self-cleavage": 0.0615}, {"variant": "GGCCGGCAUGGUCCCAGCCUCCUCGCUGGCGCCGGCCGGGCAACAUGCCGAGGGGACCGUCCCCUCGGUAAUGGCGAAUGGGACCCA", "note": "[U37C U47G]", "self-cleavage": 0.8}, {"variant": "GGCCGGCAUGGUCCCAGCCUCCUCUCUGGCGCCGGCUGGGCAACAUUCCGAGGGGACCGACCCCUCGGUAAUGGCGAAUGGGACCCA", "note": "[G25U U60A]", "self-cleavage": 0.237}, {"variant": "GGCCGGCAUAGUCCCAGCCUCCUCGCUGGCGCCGGCUGGGCAACAUUCCGAGGGGACCGUCCCCUCGGUAAUGGCGAAUGGGACCCG", "note": "[G10A A87G]", "self-cleavage": 0.857}, {"variant": "GGCCGGCAUGGUCCCAGACUCCUCGCUGGCGCCGGCUGGGCAACAUUCCGACGGGACCGUCCCCUCGGUAAUGGCGAAUGGGACCCA", "note": "[C18A G52C]", "self-cleavage": 0.0346}, {"variant": "GGCCGGCAUGGUCCCAGCCUCCUCGCUGGCGCCGGCUGGGCAACAUUCCGAGGGUACCGUCCCCUCGGUAAUGGCGAAUAGGACCCA", "note": "[G55U G80A]", "self-cleavage": 0.477}, {"variant": "GGCCGGCAUGGUGGCAGCCUCCUCGCUGGCGCCGGCUGGGCAACAUUCCGAGGGGACCGUCCCCUCGGUAAUGGCGAAUGGGACCCA", "note": "[C13G C14G]", "self-cleavage": 0.166}, {"variant": "GGCCGGCAUGGUCGCAGCCUCCUCGCUGGCGCCGGCUGGGCAACAUUCCGAGGGGACCGUCCCCUCGGUAAUGGAGAAUGGGACCCA", "note": "[C14G C75A]", "self-cleavage": 0.111}, {"variant": "GGCCGGCAUGGUACCAGCCUCCUCGCUGGCGCCGGCUGGGCAACAUUCCGAGGUGACCGUCCCCUCGGUAAUGGCGAAUGGGACCCA", "note": "[C13A G54U]", "self-cleavage": 0.188}]}]}
